Laboratory results: paper doi:10.1101/2020.11.24.396648

Key:
Assay in all cases: cryo-EM structure
[1] = molecular target: E. faecalis 70S ribosome (Enterococcus faecalis (endogenous in TX5332))
[2] = molecular target: S. aureus 70S ribosome (Staphylococcus aureus (endogenous in SH1000)) (UniProt P48940)
[3] = molecular target: L. monocytogenes 70S ribosome (Listeria monocytogenes (endogenous in EDG-e)) (UniProt B8DAY5)

UniProt P48940, sequence (P48940 whole entry, looked up): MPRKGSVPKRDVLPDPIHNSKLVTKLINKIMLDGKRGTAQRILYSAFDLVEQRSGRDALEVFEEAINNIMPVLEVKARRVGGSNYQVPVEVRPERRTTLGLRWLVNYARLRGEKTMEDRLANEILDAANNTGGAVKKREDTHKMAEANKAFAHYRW

E. faecalis LsaA-EQ2-HTF (ATPase-deficient E142Q/E452Q, C-terminal His6-TEV-FLAG3 tag) (natural protein)
occupancy of the factor on the ribosome (percent of picked ribosomal particles) [1]: > 95%

S. haemolyticus VgaALC-EQ2-FLAG3 (ATPase-deficient E105Q/E410Q, C-terminal FLAG3 tag) (natural protein)
occupancy of the factor on the ribosome (percent of picked ribosomal particles) [2]: 60%

L. monocytogenes VgaL-EQ2-HTF (Lmo0919, ATPase-deficient E104Q/E408Q, C-terminal His6-TEV-FLAG3 tag) (natural protein)
occupancy of the factor on the ribosome (percent of picked ribosomal particles) [3]: 70%
